In the nanobody polyreactivity screen of Harvey et al. (2022):

Assay: yeast display, Sf9 membrane polyspecificity reagent, FACS + sequencing; frameworks hold sequencing errors
Procedure, shortened: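 Nanobodies came from a synthetic yeast display library in Saccharomyces cerevisiae BJ5465, induced with galactose for 36–48 hours and stained for 1 hour at 4 °C with 10% biotinylated, detergent-solubilized Sf9 membrane reagent. Cells were enriched on streptavidin microbeads and then FACS-sorted, with low and high (top ~1%) gates set on anti-HA fluorescence for expression and streptavidin fluorescence for reagent binding. Each polyreactivity label reflects the gate a clone came from. Genes were amplified by colony PCR, sequenced by MiSeq 2 × 250 and filtered by CDR length.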

| Sequence | polyreactivity (PSR sort gate) |
| --- | --- |
| QVQLVESGGGLVQAGGSLRLSCAASGYIFDRNSMGWYRQAPGKERELVAAITKRGGITYYADSVKGRFTISRDNAKNTVYLQMNSLKPEDTAVYYCNALARSSRYDYWGQGTQVTVSS | high polyreactivity |
| QVQLVESGGGLVQAGGSLRLSCAASGRLFKDNAMGGYRQAPGKERELVATIDSGGDTNYADSVKGRFTISRDNAKNTVYLQMNSLKPEDTAVYYCNTAGRGGIPSGFDYWGQGTQVTVSS | low polyreactivity |
| QVQLVESGGGLVQAGGSLRLSCAASGFTFYNNAMGWYRQAPGKERELVAGIARRGGSTSYADSVKGRFTISRDNAKNSVYLQMNSLKPEDTEVYYCAKQDYSPYYPYDYWGLGTQVTVSS | high polyreactivity |
| QVQLVESGGGLVQAGGSLRLSCAASGFIFYYYDMGWYRQAPGKERELVAAISTGGSTYYADSVKGRFTISRDNAKNTVYLQMNSLKPEDTAVYYCAADSYWSPYDYWGQGTQVTVSS | high polyreactivity |
| QVQLVESGGCLVQAGGSLRLSCAASGSTIGVNAMGWYRQAPGKERELVAAISRGGGRTYYADSVKGRFTISRDNAKNTVYLQMNSLKPEDTAVYYCNTDFGARMGYCGQGTQVTVSS | high polyreactivity |
| QVQLVESGGGLVQAGGSLRLSCAASGFIFRDNAKGWYRQAPGKERELVAAISSGGTTKYADSVKGRFTISRDNAKNTVYLQMNSLKPEDTAVYYCAKGYAARIWRIYSRLYYWGQGTQVTVSS | high polyreactivity |
| QVQLVESGGGLVQAGGSLRLSCAASGSIFYRNVMGWYRQAPGKERELVATISRGGTTNYADSVKGRFTISRDNAKNTVYLQMNSLKPEDTAVYYCALKQSYYFGSYFYGHEYYYWGPGTQVTVSS | low polyreactivity |
| QVQLVESGGGLVQAGGSLRLICAASGNIFDLYAMGWYRQAPGKERELVAAITRSSSRTYYADSVKGRFTISRDNAKNTVSLQMNSLKPEDTAVYYCRAKQVNRVDYWGQGTQVTVSS | high polyreactivity |
| QVQLVESGGGLVQAGGSLRLSCAASGRIFRGYAMGWYRQAPGKERELVAAISGSGGSTYYADSVKGRFTISRDNAKNTVYLQMMSLKPEDTAVYYCAADQQSTGDWAGDYWGQGTQVTVSS | low polyreactivity |
| QVQLVESGGGLVQAGGSLRLSCAASGSIFSIYAMGWYRQAPGKERELVASITRSSGRTYYADSVKGRFTISRDNAKNTVYLQMNSLKPEDTAVYYCNAVWNTFISGRSYDYWGQGTQVTVSS | low polyreactivity |
| QVQLVESGGGLVQAGGSLRLSCAASGIIFYDNAMGWYRQAPGKERALVAALTWTGSSTYYADSVKGRFTISRDNAKNTVYLQMNSLKPEDTAVSYCNARASYGHQGRLGYARLYYWGQGTQVTVSS | high polyreactivity |
| QVQLVESGGGLVQAGGSLRLSCAASGSTFYFNSMGWYRQAPGKERELVAAITSGARTKYADSVKGRFTMSRDNAKITVYLQMNSLKPEDTAVYYCSASGLYYYRYRYYYWGQGTQVTVSS | high polyreactivity |
| QVQLVESGGGLVQAGGSLRLSCAASGRTFWNAMGWYRQAPGKERELVATITSGGITNYADSVKGRFTISRDNAKNTVYLQMNSLKPEDTAVYYCAARPYSWRNYRPSDYWGQGTQVTVSS | high polyreactivity |
| QVQLGESGGALVQAGGSLRLSCAASGFTFCPYAMGWYRQAPGKERELDAAISQSGGRTSYADSVKGRFTISRDNAKNTVYLQMNSLKPEDTAVYYCAKRAYGYRSIYRMDYWGQGTLVTVSS | high polyreactivity |
| QVQLVESGGGLVQAGGSLRLSCAASGSTFSPYAMGWYRQAPGKDRELVAAISYDGASTYYADSVKGRFTISRDNAKNTVYLQMISLKPEDTAVYYCAADYFRSYEGTYWVVASYYYWGQGTQVTVSS | low polyreactivity |
| QVQLVESGGGLVQAGGSLRLSCAASRLTFRYYAMGWYRKAPGKERELVAAISSRGASTYYADSVKGRFTISRDNAKNTVYLQMNSLKPEDTAVYNCAVRTYVYHWSFSSLPYDYWGQGTQVTVSS | high polyreactivity |
| QVQLVETGGGLVQAGGSLRLSCAASGFIFYPYDMGWYRQAPGKERELVAAITQSGGSTYYADSVKGRFTISRDNAKNTVYLQMNSLKQVDTAVYYCAADYAVWHRGQVVEIYDYWGQGTQVTVSS | low polyreactivity |
| QVQLVETGGGLVQAGGSLRISCAASGIIYVDNVMGSYRQAPGKERELVAAIDYSGGSTYYADSVKGRFTISRDNAKNNVYFQMNSLKPEDTAVYYCHARTYYGYGMDYWGQGTQVTVSS | low polyreactivity |
| QVQLVETGGGLVQAGGSLRLSCAASGRNYTYTMGWYRQAPGKERELVAAITYSGGSTYYADSVKGRFTISRDNAKNTVYLQMNSLKPEDTAVYYCAAVGRWPRYYYWGQGTQVTVSS | high polyreactivity |
| QVQLVESGGVLVQAGGSPRLSCAASGRTYAYYPMGWYRQAPGKERELVARITRGGSTYYADSVKGRFTISRDNAKNSVYLQMYSLIPDDTAVYYCNRYQWQHYTSVYLRTGSDYWGQGTQVTVSS | high polyreactivity |
| QVQLVESGGGLVQAGGSLRLSCAASGRIFDYYAMGSYRQAPGNERELVDAISSGDNTYYADSVKGRFTISRDNAKNTVYLQMNSLKPEDTAVYYCAADVSRFGYYGIGFYYWRQGTQVTVSS | low polyreactivity |
| QVQLVESGGGLVHAGVSLRLSCAASGIIFAHYAKGWYRQAPGKERELVAAISSSGATTYYADSVKGRFTISRDNAKNTVYLQMNSLKPEDTAVYYCNTETYHVRRLFDYWGQGTQVTVSS | low polyreactivity |

| Sequence | polyreactivity (PSR sort gate) |
| --- | --- |
| QVQLVESGGGLVQAGGSLRLSCAASGSTFYGYAMGWYRQAPGKERELVAAITRSGGSTYYADSVKGRFTISRDNAKNTVYLQMNSLKPEDSEVYYCNKYGYKGGVGYDYWGQGTEVTVSS | high polyreactivity |
| QVQLVESGGGLVQAGGSLRLSCAASGNIFDYYAMGWYRQAPGKERELVAAISTGTSTYADSVKGRFTISRDNAKNTVYLQMNSVKPEDTAVYYCASDVGIRPLNYHPYNYWGQGTQVTVSS | low polyreactivity |
| QVQLVESGGGLVQAGGSLRLSCAASGRIFYRYAMGWYRQAPGKERELVAAITQSGGSTFYADSVKGRFTISRDNAKNTVYLQMNSLKPEDTAVYYCNRRGPGFYSTRFNYWGQGTQVTVSS | high polyreactivity |
| QVQLVESGGGLVQAGGSLRLSCAASGSTFGFYAMGWYRQAPGKERELVAAISWNDGSTYYADSVKGRFTISRDNAKNTVYLQMNSLKPEDTAVYYCATEYSLWYTRDWQRYEYWGQGTQVTVSS | high polyreactivity |
| QVQLVESGGGLVQAGGSLRLSCAASGTLYINVMGWYRQAPGKERELVAAISSNGARTYYADSVKGRFTISRDNAKNTVYLQMNSLKPEDTAVYYCNRVASVRARDYDYWGQGTQVTVSS | high polyreactivity |
| QVQLVESGGGLVKAGGSLRLICAAYGRIFALYAMGWYRHAPGKERELVAAINNGASTNYADSVKWRFTISRDNAKNTVYVQMNSLKPEDTAVYYCAVRAARSGQRFYSWGQGTQVTVSS | high polyreactivity |
| QVQLVESGGGLVQAGGSLRLSCAASGSIFRYNAMGWYRQAPGKERELVASINAGGGSTYYADSVKGRFTISRDNAKNTVYLLMNSLKPEDTAVYDCAAVAHSATRFRYYWRYDYWGQGTQVTVSS | high polyreactivity |
| QVQLVESGGGLVQAGGSLRLSCAASGLIFVWYAMGWYRQAPGKERELVAAISWRGGTRYYADSVKGRFTISRDNAKNTVYLQMTSLKPEDTAVYYCARDPDTYFFPPNGYYSSGFDSWGQGTQVTVSS | low polyreactivity |
| QVQLVESGGGLVQAGGSLRLSCAASGIILYWNAMGWYRQAPGKERELVARITSGGSTNYADSVKGRFTISRDNAKNTVYLQMNSLKPEDTAVYYCAADYKAYGRSYDYWGQGTQVTVSS | low polyreactivity |
| QVQLVESGGGLVQAGGSLRLSCAASGRIFSYYAMGWYRPAPGKERELVAAISSSGGSTYYADSVKGRFTISRDNAKNTVYLQMNSLKPEDTAVYYCRVYTRGEYYSWGQGTQVTVSS | high polyreactivity |
| QVQLVESGGGLVQAGGILRLSCDASGFTFGYYTMGWYRQAHGKEREFVAAITGGSGSTYYADSVKGRFTISRDNAKNTVYLQMNSLKPEDTAVYYCAASIWRGLTPLLIGFDYWGQGTQVTVSS | high polyreactivity |
| QVQLVESGGGLVQAGGSLRLSCAASGLIFYLYAMGWYRQAPGKEREFVAAITTSGGSTHYADSVKGRFTISRDNAKNTVYLQMNSLKPEDTAVYYCAADDYFHGPGLEFDYWGQGTQVTVSS | low polyreactivity |
| QVQLVESGGGLVQAGGSLRLSCAASGRTFGLYAMRWYIQAPGKERELVAAIRGSAGSTYYADSVKGRFTISRDNAKNTVYLQMNSLKPEDTAVYYCATGGYPSLWYGYGYWGQGTQVTVSS | low polyreactivity |
| QVQLVESGGGLVQAGGSLRLSCAASGRTLGTNAMGWYRQAPGKERELVASISKRGGSTYYADSVKGRFTISRDNAKNTVYLQMNSLKPEDTAVYYCAALFLSHIYYYWGQGTQVTVSS | high polyreactivity |
| QVQRVESGGGLVQAGGSLRLSCAASGITFGEYAMGWYSPAPGNERELVAGINWSGDGTYYADSVKGRFTISRDNEKNTVYLQMNSLKPEDTAVYYCAVDPGGGNYIYYYNEYYYWGQGTQVTLSS | low polyreactivity |
| QVQLVESGGGLVQAGGSLRLSCDASGRILKYNAMGWYRQAPGKERELVAAISGSGGRTYYADSVKGRFTISRDNAKNTVYLQMNSLKPEDTAVYYCAASNASPGGFNYWGQGTQVTVSS | high polyreactivity |
| QVQLVESGGGLVQAGGSLRFSCAPSGRILYKYAMGCYRQAPGKERELVAAISWRGTTTYYADSVKGRFTISRDNAKNTVYLQMNSLKPEDTAVYYCNARVRVRLGRNWSSYYYWGQGTQVTVSS | high polyreactivity |
| QVQLVESGGGLVQAGGSLRLSCAASGRIFIRNAMGWYRQAPGTERELVAAITSDGITYYADSVKGRFTISRDNATNTVYLQMNSLKPEDTAVYYCAKVGGWFSNLFIPRYREYNYWGQGTQVTVSP | low polyreactivity |
| QVQLVESGGGLVQAGGSLRLSCAASGSIFEGNAMGWYRQAPGKEREFVAAITKRGGSTYYADSVKGRFTISRDNAKITVYLQMNSLKTEDTAVYYCAKGYRRVFGPFYYWGQGTQVTVSS | low polyreactivity |
| QVQLVESGGGLVQAGGSLRLSCAASGSIFGIYVMGWYRQAPGKERELVAGISTRGGSTYYADSVKGRFTISRDNAKNTVYLQMNSLKPEDTAVYYCAAVPASYRYPMYYWGQGTQVNVSS | low polyreactivity |
| QVQLVESGGGLFQAGGRLRLSCAPSGGTLPKYAMAWYRHAPGKERELVARITWNDGTTYYADSVKGRFTISRDNAKNTVYLQMNSLIPEDTAVYYCNTDRAYWFLYPFSYYYWGQGTQVTVSS | low polyreactivity |
